Source: paper PMC7948466

Tests used:
[1] = target: DNMT3A full length;p53 (Homo sapiens;Homo sapiens, UniProt Q9Y6K1;P04637 1-912;1-393, |); experiment: fluorescence anisotropy; unlabeled H3K4me0 peptide titrated; 50 nM DNA, 1 uM 1:1 complex; FA increases; Fluorescence anisotropy (ex 485 nm, em 520 nm), 5 min incubation at room temperature; binding buffer, salt and pH not given in the material
[2] = target: DNMT3A full length;TDG (Homo sapiens;Homo sapiens, UniProt Q9Y6K1;Q13569 1-912;1-410, |); experiment: as above
DNMT3A full length;TDG, sequence (Q9Y6K1 whole entry, chain 1 of 2): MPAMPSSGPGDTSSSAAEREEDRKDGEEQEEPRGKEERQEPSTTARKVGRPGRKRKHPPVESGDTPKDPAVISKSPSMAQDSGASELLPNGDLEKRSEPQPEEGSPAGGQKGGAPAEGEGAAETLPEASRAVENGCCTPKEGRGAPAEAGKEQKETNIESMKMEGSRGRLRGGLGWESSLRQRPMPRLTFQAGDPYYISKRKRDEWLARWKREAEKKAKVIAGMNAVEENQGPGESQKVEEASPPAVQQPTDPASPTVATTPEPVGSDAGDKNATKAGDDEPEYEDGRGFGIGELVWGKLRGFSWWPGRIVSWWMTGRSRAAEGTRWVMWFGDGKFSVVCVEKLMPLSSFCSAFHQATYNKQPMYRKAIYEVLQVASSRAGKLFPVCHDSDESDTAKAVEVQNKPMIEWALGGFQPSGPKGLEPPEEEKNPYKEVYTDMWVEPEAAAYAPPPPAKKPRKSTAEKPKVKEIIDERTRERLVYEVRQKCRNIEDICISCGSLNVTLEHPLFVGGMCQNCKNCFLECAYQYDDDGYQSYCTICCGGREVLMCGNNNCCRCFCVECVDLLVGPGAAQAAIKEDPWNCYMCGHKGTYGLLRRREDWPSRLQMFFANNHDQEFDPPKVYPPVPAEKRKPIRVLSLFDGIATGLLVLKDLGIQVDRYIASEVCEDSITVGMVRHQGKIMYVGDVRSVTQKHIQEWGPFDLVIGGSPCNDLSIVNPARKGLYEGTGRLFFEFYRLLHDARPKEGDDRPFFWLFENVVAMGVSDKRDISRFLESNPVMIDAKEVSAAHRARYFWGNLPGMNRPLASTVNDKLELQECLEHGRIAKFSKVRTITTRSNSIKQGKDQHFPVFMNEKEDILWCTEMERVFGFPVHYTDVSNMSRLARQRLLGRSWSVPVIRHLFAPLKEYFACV
DNMT3A full length;TDG, sequence (Q13569 whole entry, chain 2 of 2): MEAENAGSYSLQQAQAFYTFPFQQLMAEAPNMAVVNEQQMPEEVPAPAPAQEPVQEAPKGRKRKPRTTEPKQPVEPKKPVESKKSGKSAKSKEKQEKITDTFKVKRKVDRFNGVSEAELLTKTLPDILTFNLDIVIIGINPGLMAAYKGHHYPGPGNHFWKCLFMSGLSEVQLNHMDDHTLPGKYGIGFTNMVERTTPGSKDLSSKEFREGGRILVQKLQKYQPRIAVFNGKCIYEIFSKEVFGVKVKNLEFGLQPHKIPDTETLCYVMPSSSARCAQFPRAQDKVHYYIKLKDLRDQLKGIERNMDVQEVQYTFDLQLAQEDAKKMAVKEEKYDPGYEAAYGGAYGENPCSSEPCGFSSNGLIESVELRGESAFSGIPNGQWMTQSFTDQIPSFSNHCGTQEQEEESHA

[3] = target: DNMT3A full length (Homo sapiens, UniProt Q9Y6K1 1-912); experiment: fluorescence anisotropy; unlabeled H3K4me0 peptide (1-21) titrated; 50 nM DNA, 1 uM DNMT3A; FA increases; Fluorescence anisotropy (ex 485 nm, em 520 nm), 5 min incubation at room temperature; binding buffer, salt and pH not given in the material
DNMT3A full length, sequence (Q9Y6K1 whole entry): as the sequence (Q9Y6K1 whole entry, chain 1 of 2) above

Measured: binding result

B1: GCbox30 (dsDNA)
DNA 1: TGGATATCTAGGGGCGCTATGATATCT
DNA 2: AGATATCATAGCGCCCCTAGATATCCA
binds: all assays above
